The text below walks through data of the supplement of paper PMC10567573.

To fix the notation:
B1: OAS1 (parent)
chain: YIGTHEYPHFSHRPSTLQAASTPQ
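Further: lentivirally expressed fusions sorted by FACS into six bins by GFP to DsRed ratio, PSI derived from sequencing read proportions per bin multiplied by bin number.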

In this series the parent is B1. The experiment in a line: protein stability index of a GFP-peptide fusion (GPS, HEK-293T) (PSI 1-6); higher = more stable. Particulars: c terminus: a fixed tail appended.
Regarding YIGTHEYTHFSHRPSTLQAASTPQ, the protein stability index was 1.54.

Take YIGTHEYYHFSHRPSTLQAASTPQ: the protein stability index was 1.92.

Consider YIGTHEYWHFSHRPSTLQAASTPQ, for which the protein stability index amounted to 1.74.

As for YIGTHEYVHFSHRPSTLQAASTPQ, the protein stability index is 2.

Consider YIGTHEYPHFSHRPSTRQAASTPQ, for which the protein stability index was 2.

On to YIGTHEYPHFSHRPSTVQAASTPQ, for which the protein stability index came to 2.3.

Regarding YIGTHEYPHFSHRPSTWQAASTPQ, the protein stability index is 2.01.

For YIGTHEYPHFSHRPSTAQAASTPQ, the protein stability index is 1.84.

Take YIGTHEYPHFSHRPSTIQAASTPQ: the protein stability index was determined as 1.9.

For the variant YIGTHEYPHFSHRPSTNQAASTPQ, the protein stability index was 2.42.

With YIGTHEYPHFSHRPSTGQAASTPQ, the protein stability index was found to be 2.17.

With YIGTHEYPHFSHRPSTKQAASTPQ, the protein stability index is 1.79.

For YIGTHEYPHFSHRPSTDQAASTPQ, the protein stability index is 2.41.

As for YIGTHEYPHFSHRPSTFQAASTPQ, the protein stability index worked out at 1.83.

As for YIGTHEYPHFSHRPSTEQAASTPQ, the protein stability index stood at 2.06.

Turning to YIGTHEYPHFSHRPSTCQAASTPQ, the protein stability index worked out at 2.14.

YIGTHEYPHFSHRPSTHQAASTPQ: the protein stability index turned out to be 1.93.

YIGTHEYPHFSHRPSTYQAASTPQ: the protein stability index amounted to 2.14.

Consider YIGTHEYPHFSHRPSTSQAASTPQ, for which the protein stability index amounted to 2.12.

For YIGTHEYPHFSHRPSTQQAASTPQ, the protein stability index is 2.29.

On to YIGTHEYPHFSHRPSTMQAASTPQ, for which the protein stability index was 2.24.

In the case of YIGTHEYPHFSHRPSTPQAASTPQ, the protein stability index was 2.5.

As for YIGTHEYPHFSHRPSTTQAASTPQ, the protein stability index was 1.98.

With YIGTHEYPHFSHRPYTLQAASTPQ, the protein stability index turned out to be 1.79.

For YIGTHEYPHFSHRPHTLQAASTPQ, the protein stability index is 1.82.

With YIGTHEYPHFSHRPFTLQAASTPQ, the protein stability index came to 2.67.

Consider YIGTHEYPHFSHRPVTLQAASTPQ, for which the protein stability index stood at 2.

Regarding YIGTHEYPHFSHRPITLQAASTPQ, the protein stability index amounted to 1.85.

For YIGTHEYPHFSHRPWTLQAASTPQ, the protein stability index came to 3.2.

Turning to YIGTHEYPHFSHRPQTLQAASTPQ, the protein stability index was determined as 1.99.

For YIGTHEYPHFSHRPRTLQAASTPQ, the protein stability index was 1.96.

For the variant YIGTHEYPHFSHRPKTLQAASTPQ, the protein stability index is 1.82.

Consider YIGTHEYPHFSHRPPTLQAASTPQ, for which the protein stability index amounted to 1.62.

For YIGTHEYPHFSHRPNTLQAASTPQ, the protein stability index was 2.24.

For the variant YIGTHEYPHFSHRPMTLQAASTPQ, the protein stability index worked out at 1.6.

On to YIGTHEYPHFSHRPCTLQAASTPQ, for which the protein stability index came to 1.61.

YIGTHEYPHFSHRPTTLQAASTPQ: the protein stability index worked out at 1.94.

For the variant YIGTHEYPHFSHRPLTLQAASTPQ, the protein stability index stood at 1.69.

As to YIGTHEYPHFSHRPDTLQAASTPQ, the protein stability index is 2.1.

With YIGTHEYPHFSHRPATLQAASTPQ, the protein stability index came to 2.13.

As for YIGTHEYPHFSHRPETLQAASTPQ, the protein stability index amounted to 2.05.

As for YIGTHEYPHFSHRPGTLQAASTPQ, the protein stability index amounted to 1.79.

In the case of YIGTHEYPHFSWRPSTLQAASTPQ, the protein stability index was found to be 1.46.

As to YIGTHEYPHFSSRPSTLQAASTPQ, the protein stability index was 1.83.

Consider YIGTHEYPHFSVRPSTLQAASTPQ, for which the protein stability index was determined as 1.93.

Turning to YIGTHEYPHFSPRPSTLQAASTPQ, the protein stability index was determined as 2.15.

Consider YIGTHEYPHFSMRPSTLQAASTPQ, for which the protein stability index is 1.68.

On to YIGTHEYPHFSRRPSTLQAASTPQ, for which the protein stability index stood at 2.55.

YIGTHEYPHFSLRPSTLQAASTPQ: the protein stability index worked out at 2.39.

For YIGTHEYPHFSDRPSTLQAASTPQ, the protein stability index is 2.49.

For the variant YIGTHEYPHFSIRPSTLQAASTPQ, the protein stability index stood at 1.72.

For the variant YIGTHEYPHFSERPSTLQAASTPQ, the protein stability index amounted to 2.25.

With YIGTHEYPHFSFRPSTLQAASTPQ, the protein stability index was found to be 2.21.

As to YIGTHEYPHFSNRPSTLQAASTPQ, the protein stability index came out at 2.12.

As for YIGTHEYPHFSCRPSTLQAASTPQ, the protein stability index came out at 2.64.

YIGTHEYPHFSTRPSTLQAASTPQ: the protein stability index turned out to be 2.03.

Turning to YIGTHEYPHFSGRPSTLQAASTPQ, the protein stability index came to 1.71.

For YIGTHEYPHFSQRPSTLQAASTPQ, the protein stability index was determined as 2.23.

YIGTHEYPHFSYRPSTLQAASTPQ: the protein stability index is 1.92.

With YIGTHEYPHFSKRPSTLQAASTPQ, the protein stability index was 2.07.

Take YIGTHEYPHFSARPSTLQAASTPQ: the protein stability index was 1.97.

Turning to YIGTHEYPHFSHRPSTLDAASTPQ, the protein stability index is 1.71.

As for YIGTHEYPHFSHRPSTLEAASTPQ, the protein stability index is 2.22.

In the case of YIGTHEYPHFSHRPSTLFAASTPQ, the protein stability index came to 2.25.

On to YIGTHEYPHFSHRPSTLLAASTPQ, for which the protein stability index was determined as 2.08.

As for YIGTHEYPHFSHRPSTLNAASTPQ, the protein stability index is 2.34.

Take YIGTHEYPHFSHRPSTLGAASTPQ: the protein stability index is 2.06.

YIGTHEYPHFSHRPSTLCAASTPQ: the protein stability index turned out to be 2.08.

For YIGTHEYPHFSHRPSTLKAASTPQ, the protein stability index came out at 2.04.

With YIGTHEYPHFSHRPSTLMAASTPQ, the protein stability index was 1.74.

As for YIGTHEYPHFSHRPSTLIAASTPQ, the protein stability index amounted to 1.94.

As to YIGTHEYPHFSHRPSTLHAASTPQ, the protein stability index was 2.38.

Turning to YIGTHEYPHFSHRPSTLRAASTPQ, the protein stability index was found to be 1.95.

Take YIGTHEYPHFSHRPSTLAAASTPQ: the protein stability index stood at 2.85.

With YIGTHEYPHFSHRPSTLPAASTPQ, the protein stability index was found to be 1.81.

On to YIGTHEYPHMSHRPSTLQAASTPQ, for which the protein stability index came out at 2.73.

Consider YIGTHEYPHRSHRPSTLQAASTPQ, for which the protein stability index was determined as 2.19.

In the case of YIGTHEYPHISHRPSTLQAASTPQ, the protein stability index came out at 2.27.

For YIGTHEYPHKSHRPSTLQAASTPQ, the protein stability index worked out at 2.73.

For YIGTHEYPHCSHRPSTLQAASTPQ, the protein stability index worked out at 2.24.

With YIGTHEYPHESHRPSTLQAASTPQ, the protein stability index stood at 3.25.

On to YIGTHEYPHNSHRPSTLQAASTPQ, for which the protein stability index turned out to be 2.43.

Regarding YIGTHEYPHLSHRPSTLQAASTPQ, the protein stability index came out at 2.53.

Consider YIGTHEYPHDSHRPSTLQAASTPQ, for which the protein stability index is 3.14.

On to YIGTHEYPHHSHRPSTLQAASTPQ, for which the protein stability index turned out to be 2.56.

In the case of YIGTHEYPHPSHRPSTLQAASTPQ, the protein stability index stood at 2.06.

For YIGTHEYPHGSHRPSTLQAASTPQ, the protein stability index came out at 2.88.

For YIGTHEYPHWSHRPSTLQAASTPQ, the protein stability index is 1.89.

On to YIGTHEYPHYSHRPSTLQAASTPQ, for which the protein stability index was found to be 1.79.

As to YIGTHEYPHQSHRPSTLQAASTPQ, the protein stability index is 2.41.

With YIGTHEYPHSSHRPSTLQAASTPQ, the protein stability index is 2.9.

YIGTHEYPHVSHRPSTLQAASTPQ: the protein stability index came to 2.12.

Take YIGTHEYPHASHRPSTLQAASTPQ: the protein stability index was determined as 2.57.

On to YIGTHEYPHTSHRPSTLQAASTPQ, for which the protein stability index worked out at 2.48.
